Columns and labels:
PATU8988S cells [1] = assay: Effect of anti-FZD5 Fabs on proliferation of pancreatic cancer cell lines (percent growth inhibition); format: cell-based, human; settings: Fab 2 μg/ml
FZD9 CRD = biological target: T1, FZD9 CRD (Homo sapiens, UniProt O00144); assay: Immunofluorescence of anti-FZD5 Fab binding to CHO cells overexpressing Frizzled CRD; set-up: key: −: no binding; +: very weak binder; ++: weak binder; +++: good binder; ++++: very good binder
T1 construct: G35-A161; GPI anchor signal (C); expressed in transfected cells; host or cells: CHO cells, lentiviral pLenti-puro
T1 sequence (O00144 35-161): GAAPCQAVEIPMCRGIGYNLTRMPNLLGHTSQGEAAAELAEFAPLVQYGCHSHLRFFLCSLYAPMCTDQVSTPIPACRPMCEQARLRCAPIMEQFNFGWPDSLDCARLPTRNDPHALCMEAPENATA
How it was run: (§1)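 CHO lines each stably expressing one human Frizzled CRD as a myc-tagged, GPI-anchored cell-surface cassette (FZD_CRD-MYC-GPI, lentiviral pLenti-puro) were probed with anti-FZD5 Fabs. Binding was read by immunofluorescence, alongside flow cytometry, across the 10-member panel.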

FZD7 CRD = biological target: T2, FZD7 CRD (Homo sapiens, UniProt O75084); assay: as above; set-up: key: −: no binding; +: very weak binder; ++: weak binder; +++: good binder; ++++: very good binder
T2 construct: D45-S169; GPI anchor signal (C); expressed in transfected cells; host or cells: CHO cells, lentiviral pLenti-puro
How it was run: as §1

FZD1 CRD [2] = biological target: T3, FZD1 CRD (Homo sapiens, UniProt Q9UP38); assay: as above; set-up: key: −: no binding; +: very weak binder; ++: weak binder; +++: good binder; ++++: very good binder
T3 construct: D112-P238; GPI anchor signal (C); expressed in transfected cells; host or cells: CHO cells, lentiviral pLenti-puro
How it was run: as §1

FZD2 CRD = biological target: T4, FZD2 CRD (Homo sapiens, UniProt Q14332); assay: as above; set-up: key: −: no binding; +: very weak binder; ++: weak binder; +++: good binder; ++++: very good binder
T4 construct: D35-P161; GPI anchor signal (C); expressed in transfected cells; host or cells: CHO cells, lentiviral pLenti-puro
How it was run: as §1

[3] = test system: CHO cells not expressing Frizzled CRD; assay: Flow cytometry of anti-FZD5 Fab binding to CHO cells not expressing Frizzled CRD (background)
From the text: (§2) The binding of anti-FZD5 Fabs to cell surface-expressed Frizzled protein was further determined for each member of the Frizzled family via flow cytometry and immunofluorescence analysis of a panel of 10 CHO cell lines, each ectopically over-expressing the extracellular cysteine-rich domain (CRD) of a different Frizzled protein family member.

FZD1 CRD [4] = biological target: T3, FZD1 CRD; assay: Flow cytometry of anti-FZD5 Fab binding to CHO cells overexpressing Frizzled CRD
Protocol: Plasmids: pLCKO lentiviral vector used for knockout (TKO) library construction and expression of individual gRNAs was constructed as described previously (Hart et al., 2015). Briefly, single guide RNA (sgRNA) scaffold was amplified from px330 (Addgene 42230) and cloned into pLKO.TRC005 lentiviral vector (Broad Institute, Cambridge, Mass.) using AgeI/EcoRI restriction sites. BfuAI sites were added at the 5′ end of the sgRNA scaffold for cloning the TKO library or individual gRNA target sequences. Lenti Cas9-2A-BsdR vector used to generate Cas9 stable expression cell lines was constructed as described previously (Hart et al., 2015). Briefly, lentiCRISPR pXPR_001 (Addgene 49535) was modified through removal of the sgRNA scaffold region through NdeI/EcoRI digest and blunt ends generation using Large Klenow Fragment (NEB). 2A-puro was replaced with 2A-BsdR by PCR using the NheI/MluI sites. Each of the 10 human Frizzled cysteine rich domains (CRDs) were cloned into the lentiviral expression plasmid pLenti-puro in the following cassette: FZD_CRD-MYC-GPI.
Flow cytometry: Primary staining of cells was performed by treatment with 200 nM Frizzled profiler Fab. Alexa Fluor 488 AffiniPure F(ab′)2 was used as the secondary antibody (Jackson ImmunoResearch #109-546-097). c-Myc (9E10) IgG1 (primary antibody, Santa Cruz, lot #D0306) and Alexa Fluor 488 IgG (secondary antibody, Life technologies, lot #1458649) were used as controls. Dead cells were excluded by staining with Fixable Viability Dye eFluor 660 (eBioscience, catalogue number 65-0864). All reagents were used as per manufacturer's instructions. Flow cytometry was performed on a BD FACSCanto II flow cytometer (BD Biosciences), and data were analyzed with FlowJo software (FlowJo, LLC).
To confirm that the FZD5-WNT7B circuit is not driven simply by expression and rule out the possibility of a disconnect between RNA and protein levels for the Wnt receptors in HPAF-II cells, a panel of recombinant Fabs were generated, alternatively referred to herein as ‘Frizzled profiler’, that can detect and discriminate all but one of the ten Frizzled receptors. […] To characterize the binding specificity of these Fabs on cells, a panel of 10 CHO cell lines was generated, each expressing the CRD domain of a different myc-tagged Frizzled family member anchored at the plasma membrane through a GPI anchor (CHO-myc-FZDGPI). Despite the high sequence identity between Frizzled family members (FIG. 7A, FIG. 7B), selective Fabs were identified for FZD4, FZD5, FZD6 and FZD10 as assessed by immunofluorescence and flow cytometry (FIG. 7D and FIG. 8). […] The FZD8 CRD is most homologous to that of FZD5 (FIG. 7B). These Fabs can be used to discriminate expression of FZD1, FZD2, FZD4, FZD5, FZD6, FZD7, FZD8, FZD9 and FZD10 (FIG. 7D and FIG. 8). The ‘Frizzled profiler’ therefore consists of 10 different Fabs that can be used to discriminate expression of 9 different Frizzled family members. The Frizzled profiler was then used to confirm that HPAF-II cells express FZD1, FZD5, FZD6 and possibly FZD8 (FIG. 7E).
as §2

HPAFII cells = assay: Effect of anti-FZD5 Fabs on proliferation of pancreatic cancer cell lines (percent growth inhibition); format: cell-based, human; settings: for percent growth inhibition, HPAFII 2 μg/ml: Fab 2 μg/ml; for percent growth inhibition, HPAFII 10 μg/ml: Fab 10 μg/ml
Protocol: (§3) The effect of presently disclosed anti-FZD5 Fabs on proliferation of RNF43 loss-of-function mutant pancreatic cancer cell lines HPAFII, PATU8988S and ASPC-1; and on pancreatic cancer cell line RWP1, was tested at […] and 10 μg/ml.

ASPC-1 cells = assay: as above; format: cell-based, human; settings: Fab 10 μg/ml
Protocol: as §3

PATU8988S cells [5] = assay: as above; format: cell-based, human; settings: Fab 10 μg/ml
Protocol: as §3

RWP1 cells = assay: as above; format: cell-based, human; settings: Fab 10 μg/ml
Protocol: as §3

Molecule | percent growth inhibition, PATU8988s 2 μg/ml (PATU8988S cells [1]) | Immunofluorescence binding, Frizzled CRD overexpressed on CHO cells: FZD9 (FZD9 CRD) | Immunofluorescence binding, Frizzled CRD overexpressed on CHO cells: FZD7 (FZD7 CRD) | Immunofluorescence binding, Frizzled CRD overexpressed on CHO cells: FZD1 (FZD1 CRD [2]) | Immunofluorescence binding, Frizzled CRD overexpressed on CHO cells: FZD2 (FZD2 CRD) | Median fluorescence, Frizzled CRD overexpressed on CHO cells: None [3] | Median fluorescence, Frizzled CRD overexpressed on CHO cells: FZD1 (FZD1 CRD [4]) | percent growth inhibition, HPAFII 2 μg/ml (HPAFII cells) | percent growth inhibition, HPAFII 10 μg/ml (HPAFII cells) | percent growth inhibition, ASPC-1 10 μg/ml (ASPC-1 cells) | percent growth inhibition, PATU8988s 10 μg/ml (PATU8988S cells [5]) | percent growth inhibition, RWP1 10 μg/ml (RWP1 cells)
Fab-2900: anti-FZD5 Fab with antibody variable region Fv-2900; CDR SEQ ID NOs: 35, 36, 39, 78, 115, 153 (antibody, V domains shown) VH: EVQLVESGGGLVQPGGSLRLSCAASGFNLSSYYIHWVRQAPGKGLEWVASISSSSSSTSYADSVKGRFTISADTSKNTAYLQMNSLRAEDTAVYYCARGALDYWGQGTLVTVSS VL: DIQMTQSPSSLSASVGDRVTITCRASQSVSSAVAWYQQKPGKAPKLLIYSASSLYSGVPSRFSGSRSGTDFTLTISSLQPEDFATYYCQQWYSGSSLFTFGQGTKVEIK | −29.28% | − | + | − | − | 3.4 | 31.06 | 3.34% | 3.46% | −1.26% | −51.41% | −29.81%
Fab-2936: anti-FZD5 Fab with antibody variable region Fv-2936; CDR SEQ ID NOs: 35, 36, 75, 112, 151, 179 (antibody, V domains shown) VH: EVQLVESGGGLVQPGGSLRLSCAASGFNISYYYMHWVRQAPGKGLEWVASIYSSSGSTSYADSVKGRFTISADTSKNTAYLQMNSLRAEDTAVYYCARAAMDYWGQGTLVTVSS VL: DIQMTQSPSSLSASVGDRVTITCRASQSVSSAVAWYQQKPGKAPKLLIYSASSLYSGVPSRFSGSRSGTDFTLTISSLQPEDFATYYCQQWYAASLITFGQGTKVEIK | −8.03% | − | − | − | − | 2.81 |  | −0.56% | 12.21% | 22.02% | −23.52% | −5.97%
Fab-2910: anti-FZD5 Fab with antibody variable region Fv-2910; CDR SEQ ID NOs: 35, 36, 49, 88, 125, 162 (antibody, V domains shown) VH: EVQLVESGGGLVQPGGSLRLSCAASGFNISYSYMHWVRQAPGKGLEWVASIYSSSSSTSYADSVKGRFTISADTSKNTAYLQMNSLRAEDTAVYYCARGAMDYWGQGTLVTVSS VL: DIQMTQSPSSLSASVGDRVTITCRASQSVSSAVAWYQQKPGKAPKLLIYSASSLYSGVPSRFSGSRSGTDFTLTISSLQPEDFATYYCQQWYGSHLITFGQGTKVEIK | 8.48% | − | + | − | − | 2.92 | 6.67 | 26.86% | 41.81% | 41.71% | −12.84% | 54.51%
Fab-2918: anti-FZD5 Fab with antibody variable region Fv-2918; CDR SEQ ID NOs: 35, 36, 57, 96, 133, 169 (antibody, V domains shown) VH: EVQLVESGGGLVQPGGSLRLSCAASGFNLSYSSIHWVRQAPGKGLEWVASIYSSYSSTSYADSVKGRFTISADTSKNTAYLQMNSLRAEDTAVYYCARFGYWAIDYWGQGTLVTVSS VL: DIQMTQSPSSLSASVGDRVTITCRASQSVSSAVAWYQQKPGKAPKLLIYSASSLYSGVPSRFSGSRSGTDFTLTISSLQPEDFATYYCQQAFGASLFTFGQGTKVEIK | −0.86% | − | + | − | − | 3.13 | 11.97 | 37.15% | 44.60% | 45.56% | −1.92% | 39.24%
